Laboratory results taken from PMC8465637, “Three ParA Dimers Cooperatively Assemble on Type Ia Partition Promoters” (Genes, 2021).
Substitutions are numbered along the chain they refer to.

Experiments:
ParA_F (SopA) [1] = target: T1, ParA_F (SopA) (plasmid F, UniProt P62556 1-388); assay: fluorescence titration; settings: apparent Kd; EMSA: 30 mM HEPES-KOH pH 7.5, 150 mM KCl, 3 mM MgCl2, 1 mM DTT, 10% glycerol, 37 C; SPR: 20 mM Hepes-KOH pH 7.4, 100 mM KCl, 10 mM MgCl2, 1 mM DTT, 24 C; MST: …
T1 sequence: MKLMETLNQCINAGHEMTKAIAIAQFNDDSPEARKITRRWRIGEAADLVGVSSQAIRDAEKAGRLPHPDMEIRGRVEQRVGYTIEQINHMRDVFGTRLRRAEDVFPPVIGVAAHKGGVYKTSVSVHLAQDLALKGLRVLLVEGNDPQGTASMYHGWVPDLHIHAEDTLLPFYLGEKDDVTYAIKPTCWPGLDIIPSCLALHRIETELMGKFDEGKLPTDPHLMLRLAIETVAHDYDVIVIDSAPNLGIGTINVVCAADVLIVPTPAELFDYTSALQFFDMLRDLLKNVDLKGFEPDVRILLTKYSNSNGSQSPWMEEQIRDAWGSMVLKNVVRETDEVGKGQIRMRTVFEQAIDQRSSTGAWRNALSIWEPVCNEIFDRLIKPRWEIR

[2] = tested on: ParB_F (SopB) (plasmid F); assay: EMSA; settings: apparent Kd; EMSA: 30 mM HEPES-KOH pH 7.5, 150 mM KCl, 3 mM MgCl2, 1 mM DTT, 10% glycerol, 37 C; SPR: 20 mM Hepes-KOH pH 7.4, 100 mM KCl, 10 mM MgCl2, 1 mM DTT, 24 C; MST: …
ParA_F (SopA) [3] = target: T1, ParA_F (SopA); assay: EMSA; 3 uM ParA_F; EMSA: 30 mM HEPES-KOH pH 7.5, 150 mM KCl, 3 mM MgCl2, 1 mM DTT, 10% glycerol, 37 C; SPR: 20 mM Hepes-KOH pH 7.4, 100 mM KCl, 10 mM MgCl2, 1 mM DTT, 24 C; MST: 10 mM Tris-HCl pH 8, 150 mM NaCl, 50 mM CaCl2, 0.05% Tween 20, 20 mg/mL BSA, 25 C; settings: protein: recombinant; tags: none (native); chain copies: 2; label: 5' Cy3
ParA_F (SopA) [4] = target: T1, ParA_F (SopA); assay: SPR; 1 uM ParA_F, no nucleotide; EMSA: 30 mM HEPES-KOH pH 7.5, 150 mM KCl, 3 mM MgCl2, 1 mM DTT, 10% glycerol, 37 C; SPR: 20 mM Hepes-KOH pH 7.4, 100 mM KCl, 10 mM MgCl2, 1 mM DTT, 24 C; MST: 10 mM Tris-HCl pH 8, 150 mM NaCl, 50 mM CaCl2, 0.05% Tween 20, 20 mg/mL BSA, 25 C; settings: protein: recombinant; tags: none (native); chain copies: 2; label: biotin
ParA_F (SopA) [5] = target: T1, ParA_F (SopA); assay: SPR; EMSA: 30 mM HEPES-KOH pH 7.5, 150 mM KCl, 3 mM MgCl2, 1 mM DTT, 10% glycerol, 37 C; SPR: 20 mM Hepes-KOH pH 7.4, 100 mM KCl, 10 mM MgCl2, 1 mM DTT, 24 C; MST: 10 mM Tris-HCl pH 8, 150 mM NaCl, 50 mM CaCl2, 0.05% Tween 20, 20 mg/mL BSA, 25 C; settings: protein: recombinant; tags: none (native); chain copies: 2; label: biotin
[6] = target: the molecule itself; assay: SEC; analytical gel filtration on a calibrated Superdex 75 10/300GL column; ParAF 4 µM in buffer E (50 mM bis-Tris pH 6, 400 mM NaCl, 0.5 mM DTT), with or without 1 mM ADP; one peak at 9.5 mL
ParA_F (SopA) [7] = target: T1, ParA_F (SopA); assay: fluorescence titration; apparent Kd; EMSA: 30 mM HEPES-KOH pH 7.5, 150 mM KCl, 3 mM MgCl2, 1 mM DTT, 10% glycerol, 37 C; SPR: 20 mM Hepes-KOH pH 7.4, 100 mM KCl, 10 mM MgCl2, 1 mM DTT, 24 C; MST: 10 mM Tris-HCl pH 8, 150 mM NaCl, 50 mM CaCl2, 0.05% Tween 20, 20 mg/mL BSA, 25 C; settings: protein: recombinant; tags: none (native); chain copies: 2; label: 5' Cy3
ParA_F (SopA) [8] = target: T1, ParA_F (SopA); assay: fluorescence titration; EMSA: 30 mM HEPES-KOH pH 7.5, 150 mM KCl, 3 mM MgCl2, 1 mM DTT, 10% glycerol, 37 C; SPR: 20 mM Hepes-KOH pH 7.4, 100 mM KCl, 10 mM MgCl2, 1 mM DTT, 24 C; MST: 10 mM Tris-HCl pH 8, 150 mM NaCl, 50 mM CaCl2, 0.05% Tween 20, 20 mg/mL BSA, 25 C; settings: protein: recombinant; tags: none (native); chain copies: 2; label: 5' Cy3
ParA_F (SopA) [9] = target: T1, ParA_F (SopA); assay: EMSA; 3 mM Mg2+, apparent Kd; EMSA: 30 mM HEPES-KOH pH 7.5, 150 mM KCl, 3 mM MgCl2, 1 mM DTT, 10% glycerol, 37 C; SPR: 20 mM Hepes-KOH pH 7.4, 100 mM KCl, 10 mM MgCl2, 1 mM DTT, 24 C; MST: 10 mM Tris-HCl pH 8, 150 mM NaCl, 50 mM CaCl2, 0.05% Tween 20, 20 mg/mL BSA, 25 C; settings: protein: recombinant; tags: none (native); chain copies: 2; label: 5' Cy3
ParA_F (SopA) [10] = target: T1, ParA_F (SopA); assay: MST; no nucleotide; EMSA: 30 mM HEPES-KOH pH 7.5, 150 mM KCl, 3 mM MgCl2, 1 mM DTT, 10% glycerol, 37 C; SPR: 20 mM Hepes-KOH pH 7.4, 100 mM KCl, 10 mM MgCl2, 1 mM DTT, 24 C; MST: 10 mM Tris-HCl pH 8, 150 mM NaCl, 50 mM CaCl2, 0.05% Tween 20, 20 mg/mL BSA, 25 C; settings: protein: recombinant; tags: none (native); chain copies: 2; label: 5' Cy3
ParA_F (SopA) [11] = target: T1, ParA_F (SopA); assay: EMSA; equimolar ParB_F; estimate close to the probe concentration; no supershift; EMSA: 30 mM HEPES-KOH pH 7.5, 150 mM KCl, 3 mM MgCl2, 1 mM DTT, 10% glycerol, 37 C; SPR: 20 mM Hepes-KOH pH 7.4, 100 mM KCl, 10 mM MgCl2, 1 mM DTT, 24 C; MST: 10 mM Tris-HCl pH 8, 150 mM NaCl, 50 mM CaCl2, 0.05% Tween 20, 20 mg/mL BSA, 25 C; settings: protein: recombinant; tags: none (native); chain copies: 2; label: 5' Cy3
ParA_F (SopA) [12] = target: T1, ParA_F (SopA); assay: SPR; 10 mM Mg2+, no nucleotide; 3 dimers per DNA; EMSA: 30 mM HEPES-KOH pH 7.5, 150 mM KCl, 3 mM MgCl2, 1 mM DTT, 10% glycerol, 37 C; SPR: 20 mM Hepes-KOH pH 7.4, 100 mM KCl, 10 mM MgCl2, 1 mM DTT, 24 C; MST: 10 mM Tris-HCl pH 8, 150 mM NaCl, 50 mM CaCl2, 0.05% Tween 20, 20 mg/mL BSA, 25 C; settings: protein: recombinant; tags: none (native); chain copies: 2; label: biotin

Molecule 75-bp probe with motifs #1 and #3 has a Kd (ParA_F (SopA) [1]) of 1200 nM.

In the case of “120-bp Cy3 probe for ParB_F (non-specific)”, the Kd [2] is reported as 1000 nM.

B1: 120-bp IR2-2* (perfect IR in the middle) (dsDNA)
DNA 1: GTAGTGTTGCTCTTATTTTAAACAATCAGTAGGTTTTTTGATGACTTTGCGATTTTGTTGTTGTCAGTAAGTAAATTGCAAAGTTTAATAAAAAAACTCAGTACAATGATTAAAGGATGT
DNA 2: ACATCCTTTAATCATTGTACTGAGTTTTTTTATTAAACTTTGCAATTTACTTACTGACAACAACAAAATCGCAAAGTCATCAAAAAACCTACTGATTGTTTAAAATAAGAGCAACACTAC
B1: no binding (ParA_F (SopA) [3]).

B2: 120-bp IR2-2*4 (dsDNA)
DNA 1: B1 DNA 1 with T98G, G101A, T102A, A103G
DNA 2: B1 DNA 2 with T18C, A19T, C20T, A23C
B2: no binding (ParA_F (SopA) [3]).

B3: nsDNA 136-bp (dsDNA)
DNA 1: CAGTGAATTGTAATACGACTCACTATAGGGCGAATTGGAGCTCCACCGCGGTGGCGGCCGCTCTAGAACTAGTGGATCCCCCGGGCTGCAGGAATTCGATATCAAGCTTATCGATACCGTCGACCTCGAGGGGGGG
DNA 2: CCCCCCCTCGAGGTCGACGGTATCGATAAGCTTGATATCGAATTCCTGCAGCCCGGGGGATCCACTAGTTCTAGAGCGGCCGCCACCGCGGTGGAGCTCCAATTCGCCCTATAGTGAGTCGTATTACAATTCACTG
B3: no binding (ParA_F (SopA) [4]).

B4: PparAB_F 58-bp (IR3-4) (dsDNA)
DNA 1: TTGTTGTTGCTTTGCAGTAAATTGCAAGATTTAATAAAAAAACGCAAAGCAATGATTA
DNA 2: TAATCATTGCTTTGCGTTTTTTTATTAAATCTTGCAATTTACTGCAAAGCAACAACAA
B4: no binding (ParA_F (SopA) [5]).

B5: ParAF (ParA of the Escherichia coli plasmid F partition system ParABSF) (natural protein, UniProt P62556 1-388, looked up)
chain: T1 sequence
notes: native protein; also called SopA; source: E. coli strain DLT812 derivative carrying pDAG127 (ParaBAD::parAF), purified (heparin, Superdex 200, mono-Q)
For B5, the “stoichiometry N” value [6] was 2.

B6: 80-bp IR3-4 probe (dsDNA)
DNA 1: GGTTTTTTGATGAGTCTCTGATTTTGTTGTTGCTTTGCAGTAAATTCAGAGATTTAATAAAAAAACGCAAAGCAATGATT
DNA 2: AATCATTGCTTTGCGTTTTTTTATTAAATCTCTGAATTTACTGCAAAGCAACAACAAAATCAGAGACTCATCAAAAAACC
For B6, the Kd (ParA_F (SopA) [7]) was 500 ± 325 nM.

B7: PparAB_F 120-bp (motifs 122'34) (dsDNA)
DNA 1: GTAGTGTTGCTCTTATTTTAAACAACTTTGCGGTTTTTTGATGACTTTGCGATTTTGTTGTTGCTTTGCAGTAAATTGCAAGATTTAATAAAAAAACGCAAAGCAATGATTAAAGGATGT
DNA 2: ACATCCTTTAATCATTGCTTTGCGTTTTTTTATTAAATCTTGCAATTTACTGCAAAGCAACAACAAAATCGCAAAGTCATCAAAAAACCGCAAAGTTGTTTAAAATAAGAGCAACACTAC
In the case of B7, the Kd (ParA_F (SopA) [8]) is reported as 130 nM, the Kd (ParA_F (SopA) [9]) is reported as 85 ± 20 nM and the Kd (ParA_F (SopA) [10]) is reported as 140 ± 23 nM. The Kd (ParA_F (SopA) [11]) was roughly 10 nM.

B8: PparAB_F 136-bp (dsDNA)
DNA 1: ATCTCCTTTTGTAGTGTTGCTCTTATTTTAAACAACTTTGCGGTTTTTTGATGACTTTGCGATTTTGTTGTTGCTTTGCAGTAAATTGCAAGATTTAATAAAAAAACGCAAAGCAATGATTAAAGGATGTTCAGAA
DNA 2: TTCTGAACATCCTTTAATCATTGCTTTGCGTTTTTTTATTAAATCTTGCAATTTACTGCAAAGCAACAACAAAATCGCAAAGTCATCAAAAAACCGCAAAGTTGTTTAAAATAAGAGCAACACTACAAAAGGAGAT
B8: binds (ParA_F (SopA) [12]).
